# What was measured:
# [1] = biological target: GST-Bahcc1^TTD (murine Bahcc1 amino acids 1904-2044) (mouse, UniProt Q3UHR0 1904-2044); assay: pull-down
# [2] = biological target: GST-53BP1^TTD (amino acids 1235-1709) (UniProt Q12888 1235-1709); assay: pull-down
# GST-53BP1^TTD (amino acids 1235-1709), sequence (Q12888 1235-1709): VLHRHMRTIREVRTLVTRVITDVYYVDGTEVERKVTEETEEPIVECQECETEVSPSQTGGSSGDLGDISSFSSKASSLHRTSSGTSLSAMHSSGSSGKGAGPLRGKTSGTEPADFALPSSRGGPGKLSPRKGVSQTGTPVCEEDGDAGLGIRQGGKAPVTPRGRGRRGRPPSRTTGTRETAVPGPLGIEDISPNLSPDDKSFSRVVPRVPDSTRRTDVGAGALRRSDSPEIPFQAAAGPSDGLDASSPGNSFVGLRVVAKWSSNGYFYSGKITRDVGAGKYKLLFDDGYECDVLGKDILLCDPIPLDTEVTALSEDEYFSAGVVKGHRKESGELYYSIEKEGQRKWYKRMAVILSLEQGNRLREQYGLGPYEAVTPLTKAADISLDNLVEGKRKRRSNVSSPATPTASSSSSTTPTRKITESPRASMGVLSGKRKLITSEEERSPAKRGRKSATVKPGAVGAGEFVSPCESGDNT
# GST-Bahcc1^TTD (murine Bahcc1 amino acids 1904-2044), sequence (Q3UHR0 1904-2044): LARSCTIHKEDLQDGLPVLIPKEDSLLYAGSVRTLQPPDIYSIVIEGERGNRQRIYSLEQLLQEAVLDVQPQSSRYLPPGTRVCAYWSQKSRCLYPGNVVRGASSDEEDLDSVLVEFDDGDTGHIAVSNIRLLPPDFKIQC
Binder,binding result [1],binding result [2]
"GKGGAKRHRKVLRDNIQ (peptide, UniProt P62805 12-28, looked up, monomethyl-lysine at K20; biotin (position not given)) [biotinylated H4 peptide, amino acids 11 to 27, H4K20me1]",binds,
"GKGGAKRHRKVLRDNIQ (peptide, UniProt P62805 12-28, looked up, dimethyl-lysine at K20; biotin (position not given)) [biotinylated H4 peptide, amino acids 11 to 27, H4K20me2]",,binds

# From article PMC12219854 (Nature Communications, 2025)
